From patent publication US4839466A, “Insulin activity messengers” (The Rockefeller University, priority 1987, dated 1989)

Legend:
PI-glycan PLC = assay: Effects of cations and sulfhydryl reagents on PI-glycan PLC (mfVSG hydrolysis); format: biochemical, rat; conditions: 25 nM mfVSG, 2 hr at 37° C.; for Activity (dpm/2 hr): no addition 3970
Procedure: Assay of PI-glycan PLC Activity. Enzyme activity was assayed at 37° C. in a final volume of 1 ml with [^3 H]myristate-labeled C-terminal glycopeptide in 25 mM Tris, pH 7.4, with 0.1% NP-40. The reaction was terminated after 1 hr. by extraction with 1 ml toluene. Organic and aqueous phases were separated by brief centrifugation at 100 ×g and the organic phase was taken to dryness in vacuo, redissolved in 40 ul of chloroform:methanol (2:1) containing 5 ug dimyristylglycerol, and spotted on a Silica G TLC plate which had been preactivated by baking at 125° C. for 1-2 hr. The plate was developed twice in petroleum ether:diethyl ether:acetic acid (70:30:2) and then stained with iodine vapor to localize DAG. The DAG region was scraped and counted. Alternatively, 0.5 ml of the organic phase was taken directly for liquid scintillation counting.
Samples from each stage of the purification were incubated in 1 ml with 25 nM [3H]mfVSG for 2 hr at 37° C. and then extracted twice with 1 ml chloroform:methanol (200:1). The organic phases were taken to dryness and analyzed by TLC as described under Experimental Procedures. Each assay was performed in duplicate and was consistant within 10%.
Purified PI-glycan PLC was incubated with 25 nM mfVSG in the presence of the indicated reagents for 2 hr at 37° C. Enzyme activity was assayed as described for Table VIII. All assays were performed in duplicate variance was less than 10%.

BC3 Hl cells = assay: Diacylglycerol and phosphatidic acid production in labeled BC3 Hl myocytes; format: cell-based, murine
Procedure: FIG. 12--Time Course of Diacylglycerol and Phosphatidic Acid Production in Response to Insulin. Myocytes were incubated for 20 hrs. in serum free DMEM with [9,10^3 H]myristic acid (New England Nuclear), complexed 1:1 to bovine serum albumin. Insulin was added to cells in fresh media for the designated intervals, and reactions were stopped by removal of media and addition of 1 ml chloroform/methanol/1N HCl (200:100:1). 0.6ml H2 O was added and upper aqueous phases were discarded following centrifugation at 500×g for 5 minutes. The lower, organic phases were dried under N2 and resuspended in 1 ml diethyl ether followed by addition of 1 […]. The upper ether phase was aspirated and the lower phase reextracted with 1 ml diethyl ether. The combined ether phases, containing diacylglycerol, were dried under N2, resuspended in chloroform and spotted on silica gel G plates which were preactivated at 60° C. for 1 hr. Plates were twice developed in petroleum ether/diethyl ether/glacial acetic acid (70:30:2). Five ug of unlabeled dimyristoylglycerol were added to each sample. Spots were visualized by iodine staining. To the lower aqueous phases from the ether extraction were added 1 ml of chloroform/methanol (2:1). Following centrifugation, the resulting upper aqueous phases were discarded and the lower organic phases dried under N2, resuspended in chloroform/methanol/H2 O (9:7:2) and spotted on "soft plus" silica gel plates. These were developed in chloroform/pyridine/70% formic acid (50:30:7), and phosphatidic acid was identified by an iodine stained standard. Lipids were scraped and radioactivity determined in a liquid scintillation counter.
BC3 Hl cells were cultured on collagen coated multiwell plates or petri dishes in Dulbecco's minimal essential medium (DMEM) supplemented with 20% Nu serum or 10% fetal calf serum. Cells were grown to maximal density and confluence, at which time they become responsive to insulin. Radiolabeled precursors were added for 20 hrs. in serum-free medium. [^3 H]Myristic and arachidonic acids were complexed 1:1 to bovine serum albumin prior to addition.
Following preincubations with the appropriate isotopes, cells were resuspended in DMEM without serum and treated with 10 nM insulin at the designated intervals. Reactions were terminated by the addition of 1 ml chloroform/methanol/1N HCl (200:100:1), followed by 0.5 ml 10 mM formic acid. Following centrifugation at 500 x g for 5 min., the upper phase was discarded. For phospholipid analyses, the lower, organic phase was dried under N2, resuspended in chloroform/methanol/H2 O (9:7:2) and spotted on oxalate impregnated silica gel G plates. These were sequentially developed in chloroform/acetone/methanol/glacial acidic acid/H2 O (10:4:2:2:1) and chloroform/methanol/4N NH4 OH (45:35:10). One cm regions were scraped and eluted with chloroform/methanol (2:1) and counted. Phosphoinositide standards were identified by iodine staining.
For analysis of neutral lipids, the chloroform/methanol organic phases were dried under N2 and resuspended in 1 ml diethyl ether followed by addition of 1 ml 50 mM formic acid. The upper ether phase was aspirated and the lower aqueous phase was reextracted with 1 ml diethyl ether. The pooled ether phases were dried under N2, resuspended in chloroform and spotted on silica gel G plates which were preactiviated at 60° C. for 1 hr. Plates were twice developed in petroleum ether/diethyl ether/glacial acetic acid (70:30:2). Five ug of unlabeled dimyristoyl glycerol, myristic acid and monomyristoyl glycerol were added as carriers to each sample.

Adenylate Cyclase = assay: Generation of an enzyme modulator from liver plasma membranes, adenylate cyclase readout; format: biochemical, rat
Procedure: (§1) Purification of the Enzyme Modulator. Bovine liver particulate fraction was prepared as described previously [Saltiel A. R., (1984) "Preparation and Characterization of Putative Insulin Mediators from Liver", METHODS IN DIABETES […], eds. J. Larner, S. Pohl, I:73]. Solutions were incubated in 5 mM ammonium bicarbonate, pH 7.4 with 10 nM insulin or 1 ug/ml PI-PLC as described in the figure legends. Following incubation, solutions were acidified to pH 4.0 and centrifuged at 35,000 x g for 20 minutes. Resulting supernatants were extracted with chloroform/methanol (2:1). The upper aqueous phase was aspirated and methanol was evaporated. Enzyme modulating activities were purified as described in Publication No. 6 listed earlier herein. Briefly, the extract was chromatographed on DEAE-Cellulose and eluted with 0.25M triethylamine (TEA)-formate, pH 3.75. This was followed by chromatography on C-18 reversed phase resin, in the same buffer, followed by Dowex 50W X-4 in 50 mM TEA-formate, pH 3.0. The resulting eluate was lyophilized, resuspended in 50 mM TEA-formate, pH 4.5 and sequentially chromatographed on QAE-Sephadex, SAX HPLC and a P-2 gel filtration column. Only the cyclic inositol phosphate derivative residing in Peak I was examined.
(§2) Enzyme Assays. The low Km cAMP PDE was assayed in a rat adipocyte particulate fraction as previously described [Saltiel, A. R., Steigerwalt,R. W., (1986) "Purification of Putative Insulin-Sensitive cAMP Phosphodiesterase or its Catalytic Domain From Rat Adipocytes", DIABETES, 35:698] and as later modified in Publication No. 6. Activity was linear throughout 20 min. and proportional to protein concentration. Only the low Km species of the enzyme was present in this fraction. PDH activity was assayed in liver mitoplasts after preincubation with ATP as previously described [Saltiel et al., (1982) PROC. NATL. ACAD. SCI. U.S.A., 79:3513.]. Adenylate cyclase activity was also assayed in purified adipocyte plasma membranes. For all enzyme assays, variability was less than 5%.
(§3) Liver membranes were treated with or without 10 nM insulin or 1 ug/ml PI-PLC for 10 min. at 37° C. Following cetrifugation, the supernatants were extracted and purified up to and including the SAX HPLC step. Purified extracts were added to enzyme assays at a final dilution of 1:10. Enzyme activities were assayed with no additions or after addition of purified extracts from control, insulin or PIPPLC treated membrane. Percent of basal activity is expressed in parentheses. ^1 expressed as pmoles/mg protein-min. ^2 expressed as nmoles/mg protein-min.

[1] = PI-PLC treatment of lipids extracted from labeled BC3 Hl cells, TLC; format: biochemical, murine; conditions: PI-PLC 30 min.
Procedure: FIG. 8--SAX HPLC of Radiolabeled Mediators Produced by PI-PLC. Cells were prelabeled as described in FIG. 7, extracted in chloroform/methanol/1N HCl (200:100:1) and centrifuged at 1000 x g for 10 min. The supernatant was dried under N2 and resuspended in 1 mil of 50 mM ammonium bicarbonate, pH 7.4. These solutions were treated with 0.1 ug/ml PI-PLC from S. aureus for 30 min. at 37° C. Reactions were terminated by reextraction with 1 ml of chloroform/methanol/1N HCl (200:100:1) and aqueous and organic phases separated. The aqueous phases were then purified as described in FIG. 7 and chromatographed on SAX HPLC column, eluted as described.
FIG. 10--Thin Layer Chromatography of the Radiolabeled Precursor After PI-PLC Treatment. Cells were labeled, extracted, treated with or without PI-PLC and reextracted as described in FIG. 8. Organic phases were chromatographed on thin layer plates as detailed in FIG. 9.

Pyruvate Dehydrogenase = assay: Generation of an enzyme modulator from liver plasma membranes, pyruvate dehydrogenase readout; format: biochemical, rat
Procedure: as §1, §2, §3

cAMP phosphodiesterase [2] = assay: Generation of an enzyme modulator from liver plasma membranes, cAMP phosphodiesterase readout; format: biochemical, rat
Procedure: as §1, §2, §3

cAMP phosphodiesterase [3] = assay: Generation of PDE messenger from liver membranes by insulin or PI-PLC; extracts assayed on cAMP phosphodiesterase; format: biochemical, rat
Procedure: These were generated from bovine liver particulate fractions by a modification of previously described methods. Particulate fraction was prepared from 100 g of bovine liver, and suspended in […] ammonium bicarbonate, pH 7.4. (Buffer A) at a final concentration of 2-4 mg protein/ml. This solution was incubated with […] for 10 min at 37° C., acidified to pH 4.0 with formic acid and sedimented at 45,000 g for 20 min. An equal volume of chloroform/methanol (2:1) was added to the supernatant, and the upper phase was aspirated and methanol was evaporated.
In the tests the results of which are tabulated above, liver membranes were treated as indicated for 10 min at 37° C., centrifuged and supernatants were extracted and purified up to and including the Dowex 50WX-4 step as described earlier herein under "Experimental Frocedures".
Partially purified extracts were assayed for ability to modulate cAMP phosphodiesterase. Basal activity was 56.2 pmoles/mg protein^-1 -min^-1.

[4] = cells incubated with [3H]arachidonic acid

Molecule: [Cl][Hg][Cl] [HgCl2]
- % control (PI-glycan PLC; addition at 100 uM): 17 % control
- Activity (dpm/2 hr) (PI-glycan PLC; addition at 100 uM): 677 dpm/2 hr

Molecule: CNC[C@H](O)c1ccc(O)c(O)c1 [epinephrine]
- change in [3H]myristoyl diacylglycerol (BC3 Hl cells; [3H]myristate labeled cells): no significant change
- change in [3H]arachidonyl diacylglycerol (BC3 Hl cells; [4]): rapid increase
- time of maximal increase in [3H]arachidonyl diacylglycerol (BC3 Hl cells; [4]): 1 min

Molecule: OCCS [2-mercaptoethanol]
- % control (PI-glycan PLC; addition at 50 mM): 190 % control
- Activity (dpm/2 hr) (PI-glycan PLC; addition at 50 mM): 7564 dpm/2 hr

Molecule: O=C(O)CN(CCOCCOCCN(CC(=O)O)CC(=O)O)CC(=O)O [EGTA]
- % control (PI-glycan PLC; addition at 100 uM): 148 % control
- Activity (dpm/2 hr) (PI-glycan PLC; addition at 100 uM): 5900 dpm/2 hr

B1: PI-PLC: purified phosphatidylinositol specific phospholipase C from S. aureus (protein, UniProt P45723 27-312, looked up)
1-phosphatidylinositol …: DGKHLTEINIPGSHDSGSFTLKDPVKSVWAKTQDKDYLTQMKSGVRFFDIRGRASADNMISVHHGMVYLHHELGKFLDDAKYYLSAYPNETIVMSMKKDYDSDSKVTKTFEEIFREYYYNNPQYQNLFYTGSNANPTLKETKGKIVLFNRMGGTYIKSGYGADTSGIQWADNATFETKINNGSLNLKVQDEYKDYYDKKVEAVKNLLAKAKTDSNKDNVYVNFLSVASGGSAFNSTYNYASHINPEIAKTIKANGKARTGWLIVDYAGYTWPGYDDIVSEIIDSNK
- Adenylate Cyclase, percent of basal activity (Adenylate Cyclase; as E45): 25.0%
- Adenylate Cyclase activity (Adenylate Cyclase; extract as E41, no addition 272±14, control membranes 210±4): 68.7±7.6 pmoles/mg protein-min.
- decrease in [3H]glucosamine labeling of the precursor spot [1]: 40%
- decrease in [3H]inositol labeling of the precursor spot [1]: 60%
- depletion of PI [1]: 50%
- Pyruvate Dehydrogenase, percent of basal activity (Pyruvate Dehydrogenase; as E43): 296.6%
- Pyruvate Dehydrogenase activity (Pyruvate Dehydrogenase; extract as E41, no addition 1.77±0.07, control membranes 2.45±0.20): 5.25±0.40 nmoles/mg protein-min.
- cAMP Phosphodiesterase, percent of basal activity (cAMP phosphodiesterase [2]; as E41): 311.1%
- cAMP Phosphodiesterase activity (cAMP phosphodiesterase [2]; extract of liver membranes treated with 10 nM insulin or 1 ug/ml PI-PLC 10 min. 37° C., purified to SAX HPLC, dilution 1:10, no addition 61.7±4.2, control membranes 78.5±5.6): 192±5 pmoles/mg protein-min.
- stimulation/increase of production of PDE modulating activity from membranes (cAMP phosphodiesterase [3]; after partial purification, PI-PLC 1.0 ug/ml): 6 fold
- PDE Activity (cAMP phosphodiesterase [3]; extract of liver membranes treated 10 min at 37° C. (1.0 nM Insulin, PI-PLC), purified up to Dowex 50WX-4, basal 56.2, untreated membranes 78.5): 191.3 pmol mg protein^-1 min^-1
